Results reported in publication doi:10.1101/2025.08.25.672131, “A basic leucine zipper uses a dimer pathway to locate its targets in DNA mixtures”.

T1: Jun bZIP-ΔLZ (human, UniProt P05412 246-284)
T1 chain: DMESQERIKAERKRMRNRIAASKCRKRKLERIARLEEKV

T2: CREB-bZIP-ΔLZ (human, UniProt P16220-1 277-315, C300S;C310S)
T2 chain: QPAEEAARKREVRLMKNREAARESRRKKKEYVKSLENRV

B1: Alexa Fluor 488 target for Jun, JunD, Fos (dsDNA)
DNA 1: GGATGAGTCATTGG
DNA 2: CCAATGACTCATCC
B2: Alexa Fluor 488-Comp (dsDNA)
DNA 1: GGCTAAAGCATTCT
DNA 2: AGAATGCTTTAGCC

How the values were obtained:
[1] = biological target: T1, Jun bZIP-ΔLZ; test: fluorescence anisotropy; monomer; Stopped-flow at 25 C; assay buffer not stated in the material (protein storage: 10 mM MES pH 6.5 or, for the forced-monomer bZIP-ΔLZ prep, 10 mM HEPES pH 7.4, with 150 mM NaCl, 10 mM MgCl2; 0.05% Tween-20 in the MES buffer); conditions: protein: recombinant; tags: N-terminal G left after TEV cleavage; label: 5' Alexa Fluor 488; blunt
[2] = biological target: T2, CREB-bZIP-ΔLZ; test: as above; conditions: protein: recombinant; tags: N-terminal G left after TEV cleavage; label: 5' Alexa Fluor 488; blunt

Binder	Kd [1] [µM]	Kd [2] [µM]
B1	0.22 ± 0.03	
B2		440 ± 30
